For 18 molecules, EC50 and Top Inhibition (%) results are on record in US20260234247A1.

Positions count from the first letter of the chain named.

B1: LK-RB1-11 (antibody, human IgG4 S228P, kappa, V domains shown)
VH: QVTLKESGPGILQPSQTLSLTCSFSGFSLKTSGMSVGWIRQPSGKGLEWLAHIWWNDDKYYNPVLKGRLTISKDTSNNLVFLKIASVVSTDTATYYCVRYGNSHGYWYFDVWGTGTTVTVSS
VL: NIVLTQSPASLAVSLGQRATISCRASESVDSYGNNFIHWYQQKPGQPPKVLIYYASNLEAGVPARFSGSGSRTDFTLTIDPVEAEDAATYYCQQNNEDPYTFGGGTKLEIER
B2: LK-RB1-5 (antibody, human IgG4 S228P, kappa, V domains shown)
VH: QVQLQQPGAELVKPGASVKLSCKASGYTFTDFWIHWVKQRPGQGLEWIGMIHPNSGSTNFNEKFRAKATLTVDKSSSTAYMRLSSLTSEDSAVYYCARSGDGYSNPMDYWGQGTSVTVSS
VL: QIVLSQSPAILSASPGEKVTLTCRASSSVSYMHWYQQKPGSSPKPWIYATSNLASGVPVRFSGSGSGTSYSLTISRMQTEDAATYYCQQWRRSPYTFGGGTKLEIKR
B3: LK-RB2-41 (antibody, human IgG4 S228P, kappa, V domains shown)
VH: EVQLQLSGPELVKPGASVKMSCKASGYTFTDYNMHWVKQSHGKSLEWIGYINPNNGGTTYNQKFKGKATLTVNKSSSTAYMELRSLTSEDSAVYYCARAPYYGSSYLLAYWGQGTLVTVSA
VL: DIVMTQSHKFMSTSVGDRVSITCKASQDVSTAVAWYQQKPGQSPKLLIYSASYRYTGVPDRFTGSGSGTDFTFTISSVQAEDLAIYYCQQHYSIPWTFGGGTKLEIKR
B4: LK-RB2-31 (antibody, human IgG4 S228P, kappa, V domains shown)
VH: QVQLQQPGAELVKPGASMKLSCKASGYTFTTYYMYWVKQRPGLGLEWIGGINPSNGGTTFNEKFKNKATLTVDKSSSTAYMQLRSLTSEDSAVYYCTRWRFFDVWGAGTTVTVSS
VL: SIVMTQTPEFLLVSAGDRVTITCKASQSVNNDVAWFQQKPGQSPKLLIYYASNRYTGVPDRFTGSGYGTDFTFTISTVQAEDLAIYFCQQDYSSPPTFGGATKLEIKR
B5: LK-RB2-25 (antibody, human IgG4 S228P, kappa, V domains shown)
VH: QVQLKESGPGLVAPSQSLSITCTVSGFSLTSYGVHWVRQPPGKGLEWLGVIWAGGSTKYNSALMSRLSINKDNSKSQVFLKMNSLQTDDTAMYYCARDQMVRSAMDYWGQGTSVTVSS
VL: DIQMIQSPSSMFASLGDRVSLSCRASQGIRGNLDWYQQKPGGTIKLLIYSTSNLNSAVPSRFSGSGSGSDYSLTISNLESEDFADYYCLQRNASPYTFGGGTKLEIKR
B6: LK-RB2-26 (antibody, human IgG4 S228P, kappa, V domains shown)
VH: B5 VH with K58D, S61A, L63F, M64I, S68N, N70S, N73I, K75E, L80F, K81R
VL: B5 VL
B7: LK-RB2-27 (antibody, human IgG4 S228P, kappa, V domains shown)
VH: DVKLVESGGGLVKPGGSLKLSCAASGFTFSSYSMSWVRQTPEKRLEWVATISTGGSYTYYPDSVKGRFTISRDNAKNTLYLQMSSLKSEDTAMFYCTRGSMDYWGQGTSVTVSS
VL: DILMTQSPSSMSVSLGDTVSITCHASQDISSNIGWLQQKPGNSFKGLIYHGTNLEDGVPSRFSGSGSGADYSLTISSLESEDFADYYCVQYAQFPYTFGGGTKLEIKR
B8: LK-RB2-34 (antibody, human IgG4 S228P, kappa, V domains shown)
VH: B7 VH with L4V, G55S, P61S
VL: B7 VL with T52I
B9: LK-RB2-28 (antibody, human IgG4 S228P, kappa, V domains shown)
VH: B7 VH with V64M
VL: B7 VL with T22A
B10: LK-RB2-29 (antibody, human IgG4 S228P, kappa, V domains shown)
VH: QVQLQQSGAELARPGASVKLSCKASGYTFTSYWMQWVKQRPGQGLEWIGAIYPGDGDTRYTQKFKGKATLTADKSSSTAYMQLSSLASEDSAVYYCARGYYGSSYADYFDYWGQGTTLTVSS
VL: DIQMTQSPASLSASVGETVTITCRASGNIHNYLAWYQQKQGKSPQLLVYNAKTLADGVPSRFSGSGSGTQYSLKINSLQPEDFGSYYCQHFWSTPPTFGGGTKLEIKR
B11: LK-RB2-30 (antibody, human IgG4 S228P, kappa, V domains shown)
VH: EVQLVESGGGLVQPGGSLKLSCAASGFTFNTDGMSWVRQTPDKRLELVAIINSNGGSTYYPDSVKGRFTISRDNAKNTLYLQMSSLKSEDTAMYYCAREGSYGSWFAYWGQGTLVTVSA
VL: DIQMTQSPASLSVSVGETVTITCRASENINNNLAWYHQKQGKSPQLLVYAATNLADGVPSRFSGSGSGTQYSLKINSLQSEDFGSYYCQHFWGTPFTFGGGTKLEIKR
B12: LK-RB2-42 (antibody, human IgG4 S228P, kappa, V domains shown)
VH: EFQLQQSGPELVKPGASVKISCKASGYSFTDYNMNWVKQSNGKSLDWIGIINPKYGTTAYNQKLRDKATLTVDQSSSTAYMQLNSLTSEDSAVYYCASLNWDEGFAYWGQGTLVTVSP
VL: DVLMTQTPLSLPVSLGDQASISCRSSQSIVHSNGNTYLEWYLQKPGQPPKLLIYKVSNRFSGVPERFSGSGSGTDFTLKINRVEAEDLGVYYCFQGSLVPPTFGGGTKLEIKR
B13: LK-RB2-32 (antibody, human IgG4 S228P, kappa, V domains shown)
VH: DVQLQESGPGLVKPSQSLSLTCSVTGYSITSGYYWNWIRQFPGNKLEWMGYISFDGSNHYNPSLRNRISITRDTFKNQFFLKLNSVTTEDTATFYCTRRDYNWFAYWGQGTLVTVSA
VL: DIVLTQSPVTLSVTPGDSVSLSCRASQNINKNLHWYQQRSHESPRLLIKYVSQSISGIPSRFSGSGSGTDFTLSINSVETEDFGMYFCQQSNSWPLTFGAGTKLELRR
B14: LK-RB1-51 (antibody, human IgG4 S228P, kappa, V domains shown)
VH: QVQIQQSGAELVKPGASVKLSCKASGYTFTEFPIHWIKQRSGQGLEWIGWFYPGSDNMNYNEKFKDKATLTADKSSSTVYMELSRLTSEDSAVYFCARHENAYFYAMDYWGQGTSVTVSS
VL: ENVLTQSPAIMSASLGEKVTMSCRASSSVNYMYWYQQKSDASPKIWIYYTSNLAPGVPARFSGSGSGNSYSLTISSMEGEDAATYYCQQFTSSPFTFGTGTKLEIKR
B15: LK-RB1-58 (antibody, human IgG4 S228P, kappa, V domains shown)
VH: QVQLKQSGPGLVQPSQSLSITCTVSGFSLTTYGVHWVRQSPGKGLEWLGVIWRGGSTDYNAAFMSRLSITKDNSKSQVFFRMNSLQADDTARYYCAKNSLYYGSSWYFDVWGTGTTVTVSS
VL: B2 VL with L21M, Y31F, V59A, M77V, Q78E, T79A, R91S, R92S, S93N, Y95P
B16: LK-RB1-50 (antibody, human IgG4 S228P, kappa, V domains shown)
VH: QVQLKQSGPGLVQPSQSLSITCTVSGFSLTSYGVHWVRQSPGKGLEWLGVIWRGGNTDYNAPFVSRLSITKDNSQSQVFFKMNSLEADDTAIYYCAKNSLDVYSSWYFDVWGTGTTVTVSS
VL: QIVLSQSPAILSAFPGEKVTMTCRASSSVSFMHWYQQKPGSSPKPWIYATSNLASGVPARFSGSGSGTSYSLTISRVEAEDAATYYCQQWSSNPLTFGAGTKLELKR
B17: LK-RB1-56 (antibody, human IgG4 S228P, kappa, V domains shown)
VH: B15 VH with T23S, T31N, Y59N, R81K, R92I, L100D, Y101F
VL: B16 VL with F14S, S92R, L95P
B18: 15G8 (antibody, human IgG4 S228P, kappa, V domains shown)
VH: DVQLQGSGPGLVKPSETLSLTCSVTGYSITSGYYWNWIRQFPGKKLEWMGYISYDGSNNYNPSLKNRITISRDTSKNQFSLKLNSVTAADTATYYCAHGYSYYYAMDAWGQGTSVTVSS
VL: DIQMTQSPSSLSASVGDRVTITCRTSQDISNYLNWYQQKPGKAVKLLISYTSRLHSGVPSRFSGSGSGTDYTLTISSLQPEDFATYYCQQGNTLPTFGQGTKLEIKR

The first test concerns the target Rhesus LILRB1 (NP_001035762.2) protein (rhesus macaque) (UniProt F7H3G7). Put plainly: ELISA on rhesus LILRB1 (NP_001035762.2) protein.
The molecule B1 yielded a half-maximal effective concentration (EC50) of 0.08 nM.
Turning to B2, the EC50 was determined as 0.05 nM.

The target in another test is Cynomolgus LILRB2 on CHOK1 cells (cynomolgus). Put plainly: flow cytometry on CHOK1-cyno LILRB2 cells.
On to B3, for which the EC50 was 1.5 nM.
With B4, the EC50 amounted to 1.59 nM.
Consider B5, for which the half-maximal effective concentration (EC50) is 1.48 nM.
B6: the concentration for a half-maximal effect (EC50) came out at 2.11 nM.
Regarding B7, the concentration for a half-maximal effect (EC50) is 2.14 nM.
In the case of B8, the EC50 was determined as 2.3 nM.
On the same count and under the same terms, next, B9: 2.03 nM.
On the same count and under the same terms, next, B10: 2.09 nM.
On the same count and under the same terms, next, B11: 1.04 nM.
Molecule B12 registered a concentration for a half-maximal effect (EC50) of 2.86 nM.
The molecule B13 yielded a concentration giving a half-maximal response (EC50) of 5.72 nM.

In the next test the target is Rhesus LILRB1 (NP_001035762.2) on CHOK1 cells (rhesus macaque) (UniProt F7H3G7). Put plainly: flow cytometry on CHOK1-rhesus LILRB1 (NP_001035762.2) cells.
B14 registered an EC50 of 21.4 nM.
Consider B2, for which the EC50 was determined as 1.08 nM.
B15 came in with an EC50 of 158 nM.
Same read-out and setting: the value for B16 was 11.2 nM; that for B17 was 29.2 nM.
On the same count and under the same terms, next, B18: 24.1 nM.

The next test has the same target. In words: cell based blocking assay on CHOK1-rhesus LILRB1 (NP_001035762.2) cells; blocked ligand not named.
In turn, B14 registered an EC50 of 0.87 nM and a Top Inhibition (%) of 64.9%.
The matching figures for B15: 1.42 nM and 45.4%.
For B16, in that order: 5.68 nM and 57.8%.
The matching figures for B17: 2.42 nM and 15.9%.
Consider B18, for which the EC50 was 4.56 nM and the Top Inhibition (%) came out at 88.1%.
